Substitutions are numbered along the chain they refer to.
Key:
GFP-TONSL W563A = target: T1, GFP-TONSL W563A (Homo sapiens, UniProt Q96HA7 1-1378); assay: GFP immunoprecipitation of GFP-TONSL from transfected HeLa S3 cells, western blot (co-IP; association may be indirect)
T1 construct: also called TONSL W563A / GFP; not shown: N-terminal GFP tag
T1 sequence: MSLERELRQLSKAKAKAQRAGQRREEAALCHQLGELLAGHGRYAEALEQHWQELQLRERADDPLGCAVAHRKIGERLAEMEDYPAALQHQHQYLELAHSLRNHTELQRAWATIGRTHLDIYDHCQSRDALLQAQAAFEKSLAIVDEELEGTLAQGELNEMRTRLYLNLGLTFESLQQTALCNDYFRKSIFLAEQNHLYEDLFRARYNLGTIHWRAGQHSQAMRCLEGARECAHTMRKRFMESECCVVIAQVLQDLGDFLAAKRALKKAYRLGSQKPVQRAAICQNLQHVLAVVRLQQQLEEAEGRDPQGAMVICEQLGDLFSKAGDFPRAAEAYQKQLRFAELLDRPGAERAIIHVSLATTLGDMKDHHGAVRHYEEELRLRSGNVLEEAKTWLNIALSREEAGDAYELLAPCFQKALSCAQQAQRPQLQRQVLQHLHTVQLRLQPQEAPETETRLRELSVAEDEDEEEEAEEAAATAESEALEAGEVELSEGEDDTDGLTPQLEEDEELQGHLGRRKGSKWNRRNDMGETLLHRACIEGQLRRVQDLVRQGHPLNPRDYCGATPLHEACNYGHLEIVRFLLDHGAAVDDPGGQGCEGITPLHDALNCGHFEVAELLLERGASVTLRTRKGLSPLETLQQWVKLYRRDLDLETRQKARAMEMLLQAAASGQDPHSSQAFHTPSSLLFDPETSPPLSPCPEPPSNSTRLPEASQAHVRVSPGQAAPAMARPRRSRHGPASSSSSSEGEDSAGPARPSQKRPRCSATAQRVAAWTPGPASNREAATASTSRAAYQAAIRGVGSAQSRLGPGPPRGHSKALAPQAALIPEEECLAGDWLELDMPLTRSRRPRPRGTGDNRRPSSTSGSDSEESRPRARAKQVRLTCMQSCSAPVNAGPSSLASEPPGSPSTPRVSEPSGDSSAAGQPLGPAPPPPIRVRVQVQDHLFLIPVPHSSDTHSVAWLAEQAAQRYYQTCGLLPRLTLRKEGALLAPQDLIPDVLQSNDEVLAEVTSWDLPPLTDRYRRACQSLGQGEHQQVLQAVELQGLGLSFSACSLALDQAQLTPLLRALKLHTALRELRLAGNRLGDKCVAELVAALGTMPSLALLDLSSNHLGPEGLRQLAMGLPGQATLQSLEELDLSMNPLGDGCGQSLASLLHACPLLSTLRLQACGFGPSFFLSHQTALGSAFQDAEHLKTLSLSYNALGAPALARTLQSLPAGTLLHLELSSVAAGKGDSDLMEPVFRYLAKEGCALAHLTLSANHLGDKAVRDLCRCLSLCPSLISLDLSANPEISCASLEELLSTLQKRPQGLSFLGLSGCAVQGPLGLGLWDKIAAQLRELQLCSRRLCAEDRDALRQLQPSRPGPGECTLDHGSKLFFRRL

[1] = target: T2, GFP-TONSL wild type (full length) (Homo sapiens, UniProt Q96HA7 1-1378); assay: as above
T2 construct: Expressed in U-2-OS or HeLa S3 cells; assayed in cell extracts; also called GFP-TONSL WT; TONSL WT / GFP; not shown: N-terminal GFP tag
T2 sequence: T1 sequence with A563W

binding result (GFP-TONSL W563A): binds
binding result [1]: binds
B1: MMS22L (endogenous, in cell extracts) (other, UniProt Q6ZRQ5 1-1243, looked up)
chain: MENCSAASTFLTDSLELELGTEWCKPPYFSCAVDNRGGGKHFSGESYLCSGALKRLILNLDPLPTNFEEDTLEIFGIQWVTETALVNSSRELFHLFRQQLYNLETLLQSSCDFGKVSTLHCKADNIRQQCVLFLHYVKVFIFRYLKVQNAESHVPVHPYEALEAQLPSVLIDELHGLLLYIGHLSELPSVNIGAFVNQNQIKLFPPSWHLLHLHLDIHWLVLEILYMLGEKLKQVVYGHQFMNLASDNLTNISLFEEHCETLLCDLISLSLNRYDKVRSSESLMSDQCPCLCIKELWVLLIHLLDHRSKWFVSESFWNWLNKLLKTLLEKSSDRRRSSMPVIQSRDPLGFSWWIITHVASFYKFDRHGVPDEMRKVESNWNFVEELLKKSISVQGVILEEQLRMYLHCCLTLCDFWEPNIAIVTILWEYYSKNLNSSFSISWLPFKGLANTMKSPLSMLEMVKTCCCDKQDQELYKSSSSYTIFLCILAKVVKKAMKSNGPHPWKQVKGRIYSKFHQKRMEELTEVGLQNFFSLFLLLAAVAEVEDVASHVLDLLNFLKPAFVTSQRALIWKGHMAFLLMYAQKNLDIGVLAEKFSCAFREKAKEFLVSKNEEMVQRQTIWTLLSIYIDGVQEVFETSYCLYPSHEKLLNDGFSMLLRACRESELRTVLSFLQAVLARIRSMHQQLCQELQRDNVDLFVQSSLSAKERHLAAVASALWRHFFSFLKSQRMSQVVPFSQLADAAADFTLLAMDMPSTAPSDFQPQPVISIIQLFGWDDIICPQVVARYLSHVLQNSTLCEALSHSGYVSFQALTVRSWIRCVLQMYIKNLSGPDDLLIDKNLEEAVEKEYMKQLVKLTRLLFNLSEVKSIFSKAQVEYLSISEDPKKALVRFFEAVGVTYGNVQTLSDKSAMVTKSLEYLGEVLKYIKPYLGKKVFSAGLQLTYGMMGILVKSWAQIFATSKAQKLLFRIIDCLLLPHAVLQQEKELPAPMLSAIQKSLPLYLQGMCIVCCQSQNPNAYLNQLLGNVIEQYIGRFLPASPYVSDLGQHPVLLALRNTATIPPISSLKKCIVQVIRKSYLEYKGSSPPPRLASILAFILQLFKETNTDIYEVELLLPGILKCLVLVSEPQVKRLATENLQYMVKACQVGSEEEPSSQLTSVFRQFIQDYGMRYYYQVYSILETVATLDQQVVIHLISTLTQSLKDSEQKWGLGRNIAQREAYSKLLSHLGQMGQDEMQRLENDNT
